The text below walks through data of patent publication US20240279325A1 (Chugai, published 2024).

Substitutions are numbered along the chain they refer to.

T1: FcγRIIa type R (allotype R131) extracellular domain with C-terminal His tag (human, UniProt P12318 34-217)
T1 construct: extracellular domain; also called FcγRIIaR; FcγRIIa R type
T1 sequence (looked up): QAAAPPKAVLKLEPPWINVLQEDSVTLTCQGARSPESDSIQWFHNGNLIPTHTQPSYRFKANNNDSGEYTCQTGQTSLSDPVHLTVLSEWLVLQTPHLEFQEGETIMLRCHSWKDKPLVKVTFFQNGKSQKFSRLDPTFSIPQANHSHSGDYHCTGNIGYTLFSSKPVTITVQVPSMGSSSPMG

T2: FcγRIIb extracellular domain with C-terminal His tag (human, UniProt P31994 43-217)
T2 construct: extracellular domain
T2 sequence (looked up): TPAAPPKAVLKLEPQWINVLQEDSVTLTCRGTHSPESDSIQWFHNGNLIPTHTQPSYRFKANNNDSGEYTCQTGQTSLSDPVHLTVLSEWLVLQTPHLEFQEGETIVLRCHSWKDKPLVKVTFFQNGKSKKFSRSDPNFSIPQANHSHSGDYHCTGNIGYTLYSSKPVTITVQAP

T3: human FcγRIIa type H (allotype H131) extracellular domain with C-terminal His tag (human, UniProt P12318 34-217)
T3 construct: also called FcγRIIaH
T3 sequence: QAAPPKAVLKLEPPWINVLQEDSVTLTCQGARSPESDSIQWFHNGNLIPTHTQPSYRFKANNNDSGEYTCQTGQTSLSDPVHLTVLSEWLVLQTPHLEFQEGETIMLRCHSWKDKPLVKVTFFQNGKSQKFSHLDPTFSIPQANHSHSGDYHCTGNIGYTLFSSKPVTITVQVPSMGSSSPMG

T4: FcγRIIa type H (allotype H131) extracellular domain with C-terminal His tag (human, UniProt P12318 34-217)
T4 construct: extracellular domain; also called FcγRIIaH; FcγRIIa H type
T4 sequence (looked up): T1 sequence (looked up) with R134H

T5: human FcγRIIa type R (allotype R131) extracellular domain with C-terminal His tag (human, UniProt P12318 34-217)
T5 construct: extracellular domain; also called FcγRIIaR; not shown: His tag at the C terminus
T5 sequence (looked up): T1 sequence (looked up)

T6: human FcγRIIa type H (allotype H131) extracellular domain with C-terminal His tag (human, UniProt P12318 34-217)
T6 construct: extracellular domain; also called FcγRIIaH; not shown: His tag at the C terminus
T6 sequence (looked up): T1 sequence (looked up) with R134H

B1: IL6R-BP511/IL6R-L (antibody, human IgG1, kappa, name in EU numbering)
heavy: QVQLQESGPGLVKPSETLSLTCAVSGHSISHDHAWSWVRQPPGEGLEWIGFISYSGITNYNPSLQGRVTISRDNSKNTLYLQMNSLRAEDTAVYYCARSLARTTAMDYWGEGTLVTVSSASTKGPSVFPLAPSSKSTSGGTAALGCLVKDYFPEPVTVSWNSGALTSGVHTFPAVLQSSGLYSLSSVVTVPSSSLGTQTYICNVNHKPSNTKVDKKVEPKSCDKTHTCPPCPAPELLGDDSVFLFPPKPKDTLMISRTPEVTCVVIDVAEEDGPVKFNWYVDGVEVHNAKTKPREEQDNSTYRVVSVLTVLHQDWLNGKEYKCKVSNKALPRPIEKTISKAKGQPREPQVYTLPPSRDELTKNQVSLTCLVKGFYPSDIAVEWESNGQPENNYKTTPPVLDSDGSFFLYSKLTVDKSRWQQGNVFSCSVMHEALHNHYTQESLSLSP
light: not shown
notes: copies: 2 + 2
B2: IL6R-BP488/IL6R-L (antibody, human IgG1, kappa, name in EU numbering)
heavy: B1 heavy with E235D, P274E
light: not shown
notes: copies: 2 + 2
B3: IL6R-BP509/IL6R-L (antibody, human IgG1, kappa, name in EU numbering)
heavy: B1 heavy with E235D, P274D, R332A
light: not shown
notes: copies: 2 + 2
B4: IL6R-BP504/IL6R-L (antibody, human IgG1, kappa, name in EU numbering)
heavy: B1 heavy with E235D, D298Y, R332A
light: not shown
notes: copies: 2 + 2
B5: IL6R-BP456/IL6R-L (antibody, human IgG1, kappa, name in EU numbering)
heavy: B1 heavy with E235D, I266V, P274E, D298Y, P398M
light: not shown
notes: copies: 2 + 2
B6: IL6R-BP447/IL6R-L (antibody, human IgG1, kappa, name in EU numbering)
heavy: B1 heavy with E235D, I266V, P274E, D298Y, P398A
light: not shown
notes: copies: 2 + 2
B7: IL6R-BP451/IL6R-L (antibody, human IgG1, kappa, name in EU numbering)
heavy: B1 heavy with E235D, I266V, P274E, D298Y, P398G
light: not shown
notes: copies: 2 + 2
B8: IL6R-BP183/IL6R-L (antibody, human IgG1, kappa, name in EU numbering)
heavy: B1 heavy with E235D, L236Y, D239G, I266V, A269S, E270H, P274E, D298Y, K328A, R332K
light: not shown
notes: EU numbering; copies: 2 + 2
B9: IL6R-BP206/IL6R-L (antibody, human IgG1, kappa, name in EU numbering)
heavy: B1 heavy with E235D, D239G, I266V, A269S, E270H, P274E, D298Y
light: not shown
notes: EU numbering; copies: 2 + 2
B10: IL6R-BP184/IL6R-L (antibody, human IgG1, kappa, name in EU numbering)
heavy: B1 heavy with E235D, D239G, I266V, A269S, E270H, P274E, D298Y, R332K
light: not shown
notes: EU numbering; copies: 2 + 2
B11: IL6R-BP200/IL6R-L (antibody, human IgG1, kappa, name in EU numbering)
heavy: B1 heavy with E235D, L236Y, I266V, A269S, E270H, P274E, D298Y, K328D
light: not shown
notes: EU numbering; copies: 2 + 2
B12: IL6R-BP208/IL6R-L (antibody, human IgG1, kappa, name in EU numbering)
heavy: B1 heavy with E235D, I266V, A269S, E270D, P274E, D298Y
light: not shown
notes: EU numbering; copies: 2 + 2
B13: IL6R-BP201/IL6R-L (antibody, human IgG1, kappa, name in EU numbering)
heavy: B1 heavy with E235D, I266V, A269S, E270H, P274E, D298Y
light: not shown
notes: EU numbering; copies: 2 + 2
B14: IL6R-BP214/IL6R-L (antibody, human IgG1, kappa, name in EU numbering)
heavy: B1 heavy with E235D, L236Y, I266V, A269S, E270H, G273P, P274E, K328D, R332K
light: not shown
notes: EU numbering; copies: 2 + 2
B15: IL6R-BP194/IL6R-L (antibody, human IgG1, kappa, name in EU numbering)
heavy: B1 heavy with E235D, L236Y, I266V, A269S, E270D, P274E, D298Y, K328A, R332K
light: not shown
notes: EU numbering; copies: 2 + 2
B16: IL6R-BP186/IL6R-L (antibody, human IgG1, kappa, name in EU numbering)
heavy: B1 heavy with E235D, L236Y, I266V, A269S, E270H, P274E, K328A, R332K
light: not shown
notes: EU numbering; copies: 2 + 2
B17: IL6R-BP210/IL6R-L (antibody, human IgG1, kappa, name in EU numbering)
heavy: B1 heavy with I266V, A269S, E270D, P274E, D298Y
light: not shown
notes: EU numbering; copies: 2 + 2
B18: IL6R-BP192/IL6R-L (antibody, human IgG1, kappa, name in EU numbering)
heavy: B1 heavy with E235D, D239G, I266V, A269S, E270D, P274E, R332K
light: not shown
notes: EU numbering; copies: 2 + 2
B19: IL6R-BP185/IL6R-L (antibody, human IgG1, kappa, name in EU numbering)
heavy: B1 heavy with E235D, L236Y, I266V, A269S, E270H, P274E, D298Y, K328A, R332K
light: not shown
notes: EU numbering; copies: 2 + 2
B20: IL6R-BP199/IL6R-L (antibody, human IgG1, kappa, name in EU numbering)
heavy: B1 heavy with E235D, D239G, I266V, A269S, E270H, G273P, P274E, D298Y, K328D
light: not shown
notes: EU numbering; copies: 2 + 2
B21: IL6R-BP190/IL6R-L (antibody, human IgG1, kappa, name in EU numbering)
heavy: B1 heavy with I266V, A269S, E270D, P274E, D298Y, R332K
light: not shown
notes: EU numbering; copies: 2 + 2
B22: IL6R-BP193/IL6R-L (antibody, human IgG1, kappa, name in EU numbering)
heavy: B1 heavy with E235D, D239G, I266V, A269S, E270D, P274E, D298Y, R332K
light: not shown
notes: EU numbering; copies: 2 + 2
B23: IL6R-BP234/IL6R-L (antibody, human IgG1, kappa, name in EU numbering)
heavy: B1 heavy with E235D, L236Y, I266V, A269Q, E270D, P274E, K328D, R332K
light: not shown
notes: EU numbering; copies: 2 + 2
B24: IL6R-BP241/IL6R-L (antibody, human IgG1, kappa, name in EU numbering)
heavy: B1 heavy with E235D, I266V, A269S, E270D, P274E, D298Y, K328D
light: not shown
notes: EU numbering; copies: 2 + 2
B25: IL6R-BP238/IL6R-L (antibody, human IgG1, kappa, name in EU numbering)
heavy: B1 heavy with E235D, L236Y, I266V, A269S, E270D, P274E, K328A
light: not shown
notes: EU numbering; copies: 2 + 2
B26: IL6R-BP243/IL6R-L (antibody, human IgG1, kappa, name in EU numbering)
heavy: B1 heavy with E235D, L236Y, I266V, A269S, E270D, P274E, D298Y
light: not shown
notes: EU numbering; copies: 2 + 2

T7 sequence (P12314 16-292): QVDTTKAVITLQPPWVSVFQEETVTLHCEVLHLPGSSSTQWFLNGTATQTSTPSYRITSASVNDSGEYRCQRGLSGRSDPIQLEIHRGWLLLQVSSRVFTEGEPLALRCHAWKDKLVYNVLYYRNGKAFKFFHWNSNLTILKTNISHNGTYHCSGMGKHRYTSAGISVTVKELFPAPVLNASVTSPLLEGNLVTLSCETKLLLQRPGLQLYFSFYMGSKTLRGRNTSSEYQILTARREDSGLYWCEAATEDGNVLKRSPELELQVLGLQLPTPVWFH

The target of the first assay is T1, FcγRIIa type R (allotype R131) …. Put plainly: SPR; KD of IL6R-B3/IL6R-L divided by KD of the variant.
As for B1, the “KD(IIaR) OF PARENT POLYPEPTIDE/KD(IIaR) OF ALTERED POLYPEPTIDE” value turned out to be 6.3.
For the molecule B2, the “KD(IIaR) OF PARENT POLYPEPTIDE/KD(IIaR) OF ALTERED POLYPEPTIDE” value turned out to be 14.8.
As to B3, the “KD(IIaR) OF PARENT POLYPEPTIDE/KD(IIaR) OF ALTERED POLYPEPTIDE” value stood at 2.1.
Consider B4, for which the “KD(IIaR) OF PARENT POLYPEPTIDE/KD(IIaR) OF ALTERED POLYPEPTIDE” value was determined as 2.4.

The target of the next assay is T2, FcγRIIb extracellular domain with …. Described as above.
B1: the “KD(IIb) OF PARENT POLYPEPTIDE/KD(IIb) OF ALTERED POLYPEPTIDE” value came out at 891.
For B2, the “KD(IIb) OF PARENT POLYPEPTIDE/KD(IIb) OF ALTERED POLYPEPTIDE” value was 1680.
For the molecule B3, the “KD(IIb) OF PARENT POLYPEPTIDE/KD(IIb) OF ALTERED POLYPEPTIDE” value worked out at 174.
Same read-out and setting: the result for B4 reads 127.

A further assay concerns the target T3, human FcγRIIa type H (allotype H131) …. The experiment in a line: SPR (Biacore), captured antibody, FcγR analyte.
Consider B5, for which the Kd worked out at 2 µM.
In turn, B6 registered a Kd of 2 µM. In other words, the single-digit micromolar range.
In turn, B7 gave a Kd of 2 µM.

The next assay concerns the target T2, FcγRIIb extracellular domain with …. The experiment in a line: SPR; KD for FcγRIIaR divided by KD for FcγRIIb.
Consider B1, for which the “KD(IIaR)/KD(IIb)” value was determined as 50.6.
With B2, the “KD(IIaR)/KD(IIb)” value is 40.1.
Regarding B3, the “KD(IIaR)/KD(IIb)” value turned out to be 29.2.
Consider B4, for which the “KD(IIaR)/KD(IIb)” value is 18.5.

For another assay, the target named is T4, FcγRIIa type H (allotype H131) …. Put plainly: SPR (Biacore), antibody captured, FcγR as analyte.
Turning to B2, binding was characterised by a dissociation constant (Kd) of 1.5 µM.
On the same count and under the same terms, the result for B4 reads 15 µM.

The target in another assay is T5, human FcγRIIa type R (allotype R131) …. Put plainly: SPR (Biacore), antibody captured, FcγR analyte.
B8 gave a Kd of 1.6 µM.
Same read-out and setting: under B9 stands 5.1 µM; under B10, 1.3 µM.
As for B11, the equilibrium dissociation constant (Kd) is 0.68 µM.

A further assay addresses T6, human FcγRIIa type H (allotype H131) …. The experiment in a line: SPR (Biacore), antibody captured, FcγR analyte.
The molecule B12 showed a Kd of 83 µM.
Molecule B13 gave a Kd of 69 µM.
Still for that read-out and setting: under B14 stands 92 µM.
As to B15, the Kd is 85 µM.
On the same count and under the same terms, under B16 stands 93 µM; under B17, 95 µM.
B11 yielded a Kd of 42 µM.

Another assay concerns the target T7, human FcγRIa extracellular domain with C-terminal His tag (human, UniProt P12314 16-292).
T7 construct: not shown: His tag at the C terminus
Put plainly: SPR (Biacore), antibody captured, FcγR analyte.
B18: the Kd is 0.0056 µM. That is a single-digit nanomolar value.
In turn, B19 showed a Kd of 0.053 µM.
In turn, B20 came in with a Kd of 0.0054 µM.
In turn, B17 returned a Kd of 0.055 µM.
Molecule B21 returned a Kd of 0.053 µM.
Molecule B22 registered a Kd of 0.0053 µM.

The next assay addresses T2, FcγRIIb extracellular domain with …. Put plainly: SPR; KD for FcγRIIaH divided by KD for FcγRIIb.
Turning to B1, the “KD(IIaH)/KD(IIb)” value came out at 1240.
As to B2, the “KD(IIaH)/KD(IIb)” value is 865.
As for B3, the “KD(IIaH)/KD(IIb)” value is 444.
B4: the “KD(IIaH)/KD(IIb)” value worked out at 658.

A further assay has as its target T6, human FcγRIIa type H (allotype H131) …. The experiment in a line: SPR (Biacore), antibody captured, FcγR analyte. This is another data set of the same source.
B23 registered a Kd of 20 µM. This counts as double-digit micromolar.
In the case of B24, the Kd is 9 µM.
Turning to B25, binding was put at a Kd of 7 µM.
B26 registered a Kd of 6 µM. This Kd and that of the molecule before are within 1.5-fold of each other.
